Data: patent US20230069055A1 (BOLT BIOTHERAPEUTICS, published 2023)
Residue numbers refer to the chain shown, from its start.

B1: PD-L1 binding agent 3 (antibody, V domains shown)
VH: QVQLVQSGAEVKKPGASVKVSCKASGYTFSSYYMHWVRQAPGQGLEWMGWMTTNSGITGYAQKFQGRVTMTRDTSTSTVYMELSSLRSEDTAVYYCAREGYSSGLDYWGQGTLVTVSS
VL: not shown
B2: PD-L1 binding agent 4 (antibody, V domains shown)
VH: QVQLVQSGAEVKKPGSSVKVSCKASGYTFTGYYIHWVRQAPGQGLEWMGGIIPIFGTASYAQKFQGRVTITADESTSTAYMELSSLRSEDTAVYYCARDGRFWSGYPDYWGQGTLVTVSS
VL: DIQMTQSPSSLSASVGDRVTITCRASQGISNYLAWYQQKPGKAPKLLIYRASNLESGVPSRFSGSGSGTDFTLTISSLQPEDFATYYCQQSYSTPLTFGGGTKVEIK
B3: PD-L1 binding agent 11 (antibody, V domains shown)
VH: QVQLVQSGAEVKKPGASVKVSCKASGYTFTGYYMHWVRQAPGQGLEWMGWMNPNSGNTGYAQKFQGRVTMTRDTSTSTVYMELSSLRSEDTAVYYCARDSWYGDWFDPWGQGTLVTVSS
VL: B2 VL with G28S, I29V, S30G, N31S, Y32W, R50G, N53S, E55Q
B4: PD-L1 binding agent 14 (antibody, V domains shown)
VH: QVQLVQSGAEVKKPGASVKVSCKASGYNFSAYYVHWVRQAPGQGLEWMGWMNPNRGITDSAQKFQGRVTMTRDTSTSTVYMELSSLRSEDTAVYYCAREAYVAAFDIWGQGTTVTVSS
VL: B2 VL with N31S, Y32W, R50A, N53S, E55Q
B5: PD-L1 binding agent 10 (antibody, V domains shown)
VH: QVQLVQSGAEVKKPGASVKVSCKASGYTFTGYYMHWVRQAPGQGLEWMGWMNPNGGTTGYAQNFQGRVTMTRDTSTSTVYMELSSLRSEDTAVYYCAREGFGPNAFDIWGQGTTVTVSS
VL: B2 VL with G28S, N31S, Y32W, R50A, E55Q, S91Y, L96Y, G100Q
B6: PD-L1 binding agent 9 (antibody, V domains shown)
VH: QVQLVQSGAEVKEPGASVKVSCKASGYTFTDHYLHWVRQAPGQGLEWMGWMNPNIGNTGYAQKFQGRVTMTRDTSTSTVYMELSSLRSEDTAVYYCAREPLQLGGFDYWGQGTLVTVSS
VL: B2 VL with Q27E, G28S, N31S, Y32W, R50A, N53S, E55Q, G100Q, V104L
B7: PD-L1 binding agent 6 (antibody, V domains shown)
VH: QVQLVQSGAEVKKPGASVKVSCKASGYTFTSHDINWVRQAPGQGLEWMGWMNPNSGNTGYAQKFQGRVTMTRDTSTSTVYMELSSLRSEDTAVYYCARDRWYMGSADYWGQGTLVTVSS
VL: B2 VL with G28S, N31T, Y32W, R50A, N53T, E55Q, L96F, G100Q
B8: PD-L1 binding agent 5 (antibody, V domains shown)
VH: QVQLVQSGAEVKKPGASVKVSCKASGYTFSTHYMHWVRQAPGQGLEWMGWMNPNSGHAGSAQKFQGRVTMTRDTSTSTVYMELSSLRSEDTAVYYCARESIAVAGYDYWGQGTLVTVSS
VL: B2 VL with G28S, N31S, Y32W, R50A, N53T, E55Q, S56R, L96Y, G100Q, V104L
B9: PD-L1 binding agent 15 (antibody, V domains shown)
VH: QVQLVQSGAEVKKPGASVKVSCKASGYTFTRHYVHWVRQAPGQGLEWMGWMNPNSGSAGYAQKFQGRVTMTRDTSTSTVYMELSSLRSEDTAVYYCARERGYNAFDYWGQGTLVTVSS
VL: EIVMTQSPATLSVSPGERATLSCRASQSLSSSYLAWYQQKPGQAPRLLIYGASTRATGIPARFSGSGSGTEFTLTISSLQSEDFAVYYCHQYFTTPLTFGQGTRLEIK
B10: PD-L1 binding agent 16 (antibody, V domains shown)
VH: QVQLVQSGAEVKKPGASVKVSCKASGYTLPNYIHWVRQAPGQGLEWMGWIHPRSGATGYAPKFQGRVTMTRDTSTSTVYMELSSLRSEDTAVYYCARDSVFGLDYWGQGTLVTVSS
VL: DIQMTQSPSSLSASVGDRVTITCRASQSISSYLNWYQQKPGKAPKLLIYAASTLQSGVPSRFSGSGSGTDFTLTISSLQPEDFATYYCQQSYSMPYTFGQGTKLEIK
B11: PD-L1 binding agent 7 (antibody, V domains shown)
VH: B3 VH with G31S, S100D, Y102G
VL: DIQMTQSPSSLSASVGDRVTITCQASQDISNHLNWYQQKPGKAPKLLIYGASNLQRGVPSRFSGSGSGTDFTLTISSLQPEDFATYYCQQSYSTPITFGQGTRLEIK
B12: PD-L1 binding agent 1 (antibody, V domains shown)
VH: QVQLVQSGAEVKKPGASVKVSCKASGYTFSSDYMHWVRQAPGQGLEWMGWMSPYNGITGYAQKFQGRVTMTRDTSTSTVYMELSSLRSEDTAVYYCARDRFSGSYDYWGQGTLVTVSS
VL: not shown
B13: 45 (antibody, V domains shown)
VH: B1 VH with M51I
VL: not shown
B14: 12 (antibody, V domains shown)
VH: QVQLVQSGAEVKKPGASVKVSCKASGYTFTGYYMHWMRQAPGQGLEWIGWMSPYNGITGYAQKFQGRVTMTRDTSTSTVYMELSSLRSEDTAVYYCAREVIEVGMDVWGQGTTVTVSS
VL: B11 VL with Q24R, D28S, N31S, H32W, N34A, G50A, N53H, R56S, I96Y
B15: 13 (antibody, V domains shown)
VH: QVQLVQSGAEVKKPGASVKVSCKASGYTFTNYYMHWVRQAPGQGLEWMGWMSPSSGITGYAQKFQGRVTMTRDTSTSTVYMELSSLRSEDTAVYYCAREAWFGELSTWGQGTLVTVSS
VL: B2 VL with G28N, Y32F, A34N, R50A, N53S, E55Q, T94L, L96Y, G100Q
B16: 46 (antibody, V domains shown)
VH: B8 VH with M51I
VL: B11 VL with Q24R, D28S, N31S, H32W, N34A, G50A, N53T, I96Y, R103K
B17: 49 (antibody, V domains shown)
VH: B6 VH with E13K, M51I
VL: B2 VL with Q27E, G28S, N31S, Y32W, R50A, N53S, E55Q, G100Q, V104L
B18: 47 (antibody, V domains shown)
VH: B5 VH with M51I, G55S
VL: B2 VL with G28S, N31S, Y32W, R50A, E55Q, S91Y, L96Y, G100Q
B19: 48 (antibody, V domains shown)
VH: B3 VH with G31S, M51I, S100D, Y102G, P108Y
VL: B11 VL

Target: PD-L1 on CHO-K1/PD-L1/alphaAPC stimulator cells (UniProt Q9NZQ7 19-290, limits assumed)
Sequence (Q9NZQ7 19-290 limits assumed): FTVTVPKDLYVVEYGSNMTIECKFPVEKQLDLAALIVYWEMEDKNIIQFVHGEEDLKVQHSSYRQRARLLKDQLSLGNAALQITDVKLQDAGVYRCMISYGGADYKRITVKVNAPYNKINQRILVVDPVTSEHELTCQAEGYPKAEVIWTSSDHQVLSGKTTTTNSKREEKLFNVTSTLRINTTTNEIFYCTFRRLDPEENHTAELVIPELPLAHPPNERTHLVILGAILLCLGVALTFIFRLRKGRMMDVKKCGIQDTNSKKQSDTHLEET
Assay: cell-based or functional assay

Row | PD-L1/PD-1 blockade EC50 (nM) | PD-L1/PD-1 blockade EC50 (ng/ml) | Binder
1 | 0.33 nM | 47.3 ng/mL | B1
2 | 0.85 nM | 124 ng/mL | B2
3 | 0.37 nM | 53.6 ng/mL | B3
4 | 1.15 nM | 166 ng/mL | B4
5 | 0.47 nM | 67.4 ng/mL | B5
6 | 0.67 nM | 97.3 ng/mL | B6
7 | 0.73 nM | 106 ng/mL | B7
8 | 0.37 nM | 54.3 ng/mL | B8
9 | 1.13 nM | 164 ng/mL | B9
10 | 1.25 nM | 181 ng/mL | B10
11 | 0.73 nM | 106 ng/mL | B11
12 | 0.74 nM | 106 ng/mL | B12

Target: T1, human PD-L1 (hPD-L1), endogenous on JIMT-1 cells (human, UniProt Q9NZQ7 19-290)
T1 construct: The assay used endogenous hPD-L1 on JIMT-1 cells; also called programmed death-ligand 1; CD274
T1 sequence (Q9NZQ7 19-290 limits assumed): as above
Assay: flow cytometry, JIMT-1 cells with endogenous hPD-L1, fluorescent anti-human IgG Fc secondary, geometric MFI
Experimental: Diluted binding agents were applied to JIMT-1 cells (˜1×10⁵-2×10⁵ per well) and incubated at 4° C. […] After unbound secondary antibody was washed out, cells were resuspended in FACS buffer plus 2% formaldehyde and analyzed by flow cytometry.

Row | binding result | Binder
13 | binds | B13
14 | binds | B14
15 | binds | B15
16 | binds | B16
17 | binds | B17
18 | binds | B18
19 | binds | B19
